# What was measured:
# [1] = target: CNE5 chimeric UFO trimer with CNE6 gp41_(ECTO) (HIV-1); test: negative-stain EM; purified Env proteins at 0.05 mg/ml, 2% uranyl acetate, reference-free 2D class averages
# [2] = SEC; GNL-purified Env from 293F supernatant on a Superdex 200 Increase 10/300 GL column; profile decomposed into aggregates, trimer and dimer/monomer fractions (UNICORN)
# [3] = target: CNE107 chimeric UFO trimer with CNE6 gp41_(ECTO) (HIV-1); test: negative-stain EM; purified Env proteins at 0.05 mg/ml, 2% uranyl acetate, reference-free 2D class averages
# [4] = target: BG505 UFO trimer (HIV-1); test: native gel or EMSA
# [5] = target: BG505 UFO trimer (HIV-1); test: negative-stain EM; purified Env proteins at 0.05 mg/ml, 2% uranyl acetate, reference-free 2D class averages
# [6] = target: MG13 UFO trimer (HIV-1); test: native gel or EMSA
# [7] = target: MG13 UFO trimer (HIV-1); test: negative-stain EM; purified Env proteins at 0.05 mg/ml, 2% uranyl acetate, reference-free 2D class averages
# [8] = target: MG11 chimeric UFO trimer with CNE6 gp41_(ECTO) (HIV-1); test: as above
# [9] = target: CNE6 UFO trimer (HIV-1); test: native gel or EMSA
# [10] = target: CNE6 UFO trimer (HIV-1); test: negative-stain EM; purified Env proteins at 0.05 mg/ml, 2% uranyl acetate, reference-free 2D class averages
substance,measurement,setting,value
CNE5 chimeric UFO trimer with CNE6 gp41_(ECTO) (domain or fragment),stoichiometry N,[1],3
BG505 UFO trimer,trimer content (% of the SEC profile),[2],a rate of proper trimer folding of about 75.5%
CNE107 chimeric UFO trimer with CNE6 gp41_(ECTO) (domain or fragment),stoichiometry N,[3],3
MG13 UFO trimer,trimer content (% of the SEC profile),[2],85.6% for MG13
CNE6 SOSIP trimer,trimer content (% of the SEC profile),[2],21.3% for the SOSIP construct
CNE6 UFO trimer,trimer content (% of the SEC profile),[2],as high as 70.1% for CNE6
BG505 UFO trimer (domain or fragment),stoichiometry N,[4],3
same,stoichiometry N,[5],3
MG13 UFO trimer (domain or fragment),stoichiometry N,[6],3
same,stoichiometry N,[7],3
MG11 chimeric UFO trimer with CNE6 gp41_(ECTO) (domain or fragment),stoichiometry N,[8],3
CNE6 UFO trimer (domain or fragment),stoichiometry N,[9],3
same,stoichiometry N,[10],3

# Reference: article PMC7178897
